*: point of attachment. FITC = O=C1OC2(c3ccc(O)cc3Oc3cc(O)ccc32)c2ccc(NC(=S)*)cc21
What was measured:
Experiment in all cases: ITC; FITC-CSTN-WD2 peptide as titrant (380 uM) into wild-type or mutant KLC2^TPR-myc (44-50 uM) in the cell; 25 C; 0.1 M NaCl, 25 mM HEPES, 1 mM TCEP, pH 7.5; 2-3 experiments globally fitted with the model A + B -> AB; apparent stoichiometry Napp
[1] = molecular target: KLC2^TPR-myc Tyr^208Ala mutant (mouse) (UniProt O88448)
[2] = molecular target: KLC2^TPR-myc Thr^200Asp mutant (mouse) (UniProt O88448)
[3] = molecular target: KLC2^TPR-myc (kinesin light chain 2 TPR domain, wild type, C-terminal myc tag) (mouse) (UniProt O88448)

**Q.** Which Ka [1] does the source give for {FITC}-TRQLEWDDSTL-OH [FITC-labeled CSTN(WD2) peptide (FITC-…-COOH)] here?
**A.** 541000 M⁻¹

**Q.** And the stoichiometry N [1]?
**A.** 0.67

**Q.** What about the Ka [2] of the same binder?
**A.** 845000 M⁻¹

**Q.** And the stoichiometry N [2]?
**A.** 0.71

**Q.** And the Ka [3]?
**A.** 820000 M⁻¹

**Q.** And the stoichiometry N [3]?
**A.** 0.67
